Earlier results as cited in publication PMC6753016.
Where two headings read alike, the source gives them in different places. Values belong to the substance of their own block, whether it stands above or below them.

Assays:
[1] = biological target: Factor XIIa (Homo sapiens) (UniProt P00748)
[2] = biological target: Trypsin (Bos taurus) (UniProt P00760)
[3] = biological target: Cathepsin L (UniProt P07711)
Target sequence in this assay (P07711 114-288, chain 1 of 2): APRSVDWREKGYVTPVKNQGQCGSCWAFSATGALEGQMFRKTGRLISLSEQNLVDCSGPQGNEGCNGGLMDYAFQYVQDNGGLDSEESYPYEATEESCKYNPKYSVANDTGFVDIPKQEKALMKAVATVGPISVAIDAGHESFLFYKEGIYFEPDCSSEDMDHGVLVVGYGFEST
Target sequence in this assay (P07711 292-333, chain 2 of 2): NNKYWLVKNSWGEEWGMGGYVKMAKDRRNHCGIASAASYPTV

[4] = biological target: Cathepsin H (UniProt P09668)
Target sequence in this assay (P09668 116-335): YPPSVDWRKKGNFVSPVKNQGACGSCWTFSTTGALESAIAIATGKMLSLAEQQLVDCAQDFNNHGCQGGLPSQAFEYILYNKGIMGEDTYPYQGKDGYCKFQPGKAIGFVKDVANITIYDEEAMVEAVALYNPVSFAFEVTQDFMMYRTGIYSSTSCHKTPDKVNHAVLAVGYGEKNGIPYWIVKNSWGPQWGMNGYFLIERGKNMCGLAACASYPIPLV

[5] = biological target: Cathepsin H (UniProt P09668); remark: listed apart in the source
Target sequence in this assay (P09668 whole entry, looked up): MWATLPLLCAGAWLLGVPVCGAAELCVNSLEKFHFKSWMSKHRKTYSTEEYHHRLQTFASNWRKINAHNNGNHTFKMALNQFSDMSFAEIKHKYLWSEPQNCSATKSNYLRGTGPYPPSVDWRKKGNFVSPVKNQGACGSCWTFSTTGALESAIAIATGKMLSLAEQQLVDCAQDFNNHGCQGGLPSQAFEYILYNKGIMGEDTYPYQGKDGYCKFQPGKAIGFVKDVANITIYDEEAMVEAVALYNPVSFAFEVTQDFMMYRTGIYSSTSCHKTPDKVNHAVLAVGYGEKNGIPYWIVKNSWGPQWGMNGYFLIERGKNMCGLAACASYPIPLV

[6] = biological target: Cathepsin L (UniProt P07711); remark: listed apart in the source
Target sequence in this assay (P07711 292-333): as the sequence (P07711 292-333, chain 2 of 2) above

[7] = biological target: Porcine elastase (Sus scrofa) (UniProt P00772)
Sequence of Porcine elastase (Sus scrofa) (P00772 27-266): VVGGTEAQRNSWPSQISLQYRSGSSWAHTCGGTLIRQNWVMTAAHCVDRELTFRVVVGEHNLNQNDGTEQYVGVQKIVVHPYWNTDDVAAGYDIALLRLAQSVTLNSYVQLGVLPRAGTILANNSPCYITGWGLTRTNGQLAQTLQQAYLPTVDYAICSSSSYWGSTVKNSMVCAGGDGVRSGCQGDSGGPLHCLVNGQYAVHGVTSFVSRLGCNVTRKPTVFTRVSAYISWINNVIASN

[8] = biological target: β-Trypsin (Bos taurus) (UniProt P00760)
Sequence of β-Trypsin (Bos taurus) (P00760 149-246): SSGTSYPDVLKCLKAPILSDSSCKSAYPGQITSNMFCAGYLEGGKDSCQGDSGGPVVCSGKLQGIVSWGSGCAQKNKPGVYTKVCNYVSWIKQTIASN

[9] = biological target: Cathepsin B (UniProt P07858)
[10] = biological target: Cathepsin L (UniProt P07711); remark: listed apart in the source
Target sequence in this assay (P07711 114-288, chain 1 of 2): as the sequence (P07711 114-288, chain 1 of 2) above
Target sequence in this assay (P07711 292-333, chain 2 of 2): as the sequence (P07711 292-333, chain 2 of 2) above

[11] = biological target: Cathepsin H (UniProt P09668); remark: listed apart in the source
Target sequence in this assay (P09668 116-335): as the sequence (P09668 116-335) above

[12] = biological target: Cathepsin H (UniProt P09668); remark: listed apart in the source
Target sequence in this assay (P09668 whole entry, looked up): as the sequence (P09668 whole entry, looked up) above

[13] = biological target: Cathepsin L (UniProt P07711); remark: listed apart in the source
Target sequence in this assay (P07711 292-333): as the sequence (P07711 292-333, chain 2 of 2) above

[14] = biological target: Cathepsin B (UniProt P07858); remark: listed apart in the source
[15] = biological target: Kallikrein 14 (Homo sapiens) (UniProt Q9P0G3)
Sequence of Kallikrein 14 (Homo sapiens) (Q9P0G3 41-267): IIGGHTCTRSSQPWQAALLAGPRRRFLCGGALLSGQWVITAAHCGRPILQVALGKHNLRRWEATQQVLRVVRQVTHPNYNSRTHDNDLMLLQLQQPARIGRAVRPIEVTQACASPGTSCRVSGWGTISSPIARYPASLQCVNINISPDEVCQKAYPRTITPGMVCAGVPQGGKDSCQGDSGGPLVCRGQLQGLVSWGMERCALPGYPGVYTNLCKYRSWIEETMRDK

[16] = biological target: Trypsin (Bos taurus) (UniProt P00760); remark: listed apart in the source
[17] = biological target: Kallikrein 5 (Homo sapiens) (UniProt Q9Y337)
Sequence of Kallikrein 5 (Homo sapiens) (Q9Y337 23-293): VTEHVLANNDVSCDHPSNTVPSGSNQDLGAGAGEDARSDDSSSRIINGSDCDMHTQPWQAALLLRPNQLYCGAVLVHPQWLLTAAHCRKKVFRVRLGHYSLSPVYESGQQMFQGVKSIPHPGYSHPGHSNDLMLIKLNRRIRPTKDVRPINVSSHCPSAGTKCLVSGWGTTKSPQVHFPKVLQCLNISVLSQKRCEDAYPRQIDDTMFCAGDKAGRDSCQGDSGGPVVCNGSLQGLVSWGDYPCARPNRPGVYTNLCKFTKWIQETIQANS

[18] = biological target: Matriptase (Homo sapiens) (UniProt Q9Y5Y6)
Sequence of Matriptase (Homo sapiens) (Q9Y5Y6 whole entry): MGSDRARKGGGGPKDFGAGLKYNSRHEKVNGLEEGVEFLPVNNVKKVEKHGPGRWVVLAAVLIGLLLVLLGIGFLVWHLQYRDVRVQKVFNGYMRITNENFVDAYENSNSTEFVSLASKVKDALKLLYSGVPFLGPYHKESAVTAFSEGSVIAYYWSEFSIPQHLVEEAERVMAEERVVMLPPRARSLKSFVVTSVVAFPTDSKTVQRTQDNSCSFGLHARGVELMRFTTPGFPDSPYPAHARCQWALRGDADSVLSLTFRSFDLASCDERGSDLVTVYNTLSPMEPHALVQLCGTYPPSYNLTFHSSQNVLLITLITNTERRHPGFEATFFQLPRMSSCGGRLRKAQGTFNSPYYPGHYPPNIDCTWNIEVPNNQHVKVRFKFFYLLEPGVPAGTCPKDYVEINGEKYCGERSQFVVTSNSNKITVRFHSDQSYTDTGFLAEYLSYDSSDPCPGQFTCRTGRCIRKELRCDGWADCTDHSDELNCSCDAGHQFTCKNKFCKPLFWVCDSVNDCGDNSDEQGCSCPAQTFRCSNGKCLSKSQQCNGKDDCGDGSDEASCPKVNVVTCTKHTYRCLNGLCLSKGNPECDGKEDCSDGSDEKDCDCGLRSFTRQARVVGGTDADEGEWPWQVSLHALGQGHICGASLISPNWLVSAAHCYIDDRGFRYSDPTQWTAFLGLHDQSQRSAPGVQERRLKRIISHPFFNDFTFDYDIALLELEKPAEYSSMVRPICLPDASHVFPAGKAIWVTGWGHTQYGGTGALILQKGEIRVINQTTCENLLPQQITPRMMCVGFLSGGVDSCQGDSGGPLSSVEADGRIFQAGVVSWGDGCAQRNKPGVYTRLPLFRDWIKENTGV

[19] = biological target: Kallikrein 7 (Homo sapiens) (UniProt P49862)
Sequence of Kallikrein 7 (Homo sapiens) (P49862 30-253): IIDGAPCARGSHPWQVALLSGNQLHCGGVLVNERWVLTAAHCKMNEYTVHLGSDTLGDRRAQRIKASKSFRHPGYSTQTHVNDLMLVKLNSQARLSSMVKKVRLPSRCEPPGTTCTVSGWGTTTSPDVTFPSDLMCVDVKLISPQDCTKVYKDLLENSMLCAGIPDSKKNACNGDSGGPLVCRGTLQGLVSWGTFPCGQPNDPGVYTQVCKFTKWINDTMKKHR

[20] = biological target: Cathepsin G (Homo sapiens) (UniProt P08311)
Sequence of Cathepsin G (Homo sapiens) (P08311 21-243): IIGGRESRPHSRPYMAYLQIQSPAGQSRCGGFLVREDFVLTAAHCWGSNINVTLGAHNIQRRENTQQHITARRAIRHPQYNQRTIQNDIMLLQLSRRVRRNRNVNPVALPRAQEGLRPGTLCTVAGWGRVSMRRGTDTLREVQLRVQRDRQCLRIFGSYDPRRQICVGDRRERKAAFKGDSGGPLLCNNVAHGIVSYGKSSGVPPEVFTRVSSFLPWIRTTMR

Sequence of Corn cystatin-I (P31726 25-135): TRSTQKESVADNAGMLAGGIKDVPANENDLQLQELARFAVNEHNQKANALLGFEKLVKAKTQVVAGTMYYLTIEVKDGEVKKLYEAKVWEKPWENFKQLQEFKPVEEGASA
Sequence of Corn Hageman factor inhibitor (P01088 29-138): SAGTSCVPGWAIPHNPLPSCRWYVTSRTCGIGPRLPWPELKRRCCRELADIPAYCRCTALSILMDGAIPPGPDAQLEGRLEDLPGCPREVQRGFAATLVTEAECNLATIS
Sequence of Trypsin (Bos taurus) (P00760 149-246): as the sequence (P00760 149-246) above
Sequence of MTI-2 (P26780 31-93): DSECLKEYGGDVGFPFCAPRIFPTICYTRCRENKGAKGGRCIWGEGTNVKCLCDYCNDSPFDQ
Sequence of Factor XIIa (Homo sapiens) (P00748 whole entry, looked up): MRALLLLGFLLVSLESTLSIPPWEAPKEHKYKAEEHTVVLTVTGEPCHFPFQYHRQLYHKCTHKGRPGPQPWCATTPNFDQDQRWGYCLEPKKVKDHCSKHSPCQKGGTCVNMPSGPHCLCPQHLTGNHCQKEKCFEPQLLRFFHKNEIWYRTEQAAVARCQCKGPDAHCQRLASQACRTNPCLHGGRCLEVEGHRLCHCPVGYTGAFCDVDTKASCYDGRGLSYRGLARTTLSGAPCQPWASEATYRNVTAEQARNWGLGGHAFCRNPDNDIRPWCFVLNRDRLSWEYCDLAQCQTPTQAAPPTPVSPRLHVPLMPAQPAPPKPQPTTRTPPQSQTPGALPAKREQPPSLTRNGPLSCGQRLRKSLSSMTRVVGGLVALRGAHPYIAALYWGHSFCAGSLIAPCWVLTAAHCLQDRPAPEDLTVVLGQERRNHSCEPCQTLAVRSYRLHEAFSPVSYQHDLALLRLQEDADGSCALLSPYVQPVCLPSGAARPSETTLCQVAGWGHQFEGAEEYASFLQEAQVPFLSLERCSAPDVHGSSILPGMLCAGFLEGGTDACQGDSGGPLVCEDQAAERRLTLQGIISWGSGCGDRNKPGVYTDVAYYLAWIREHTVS
Sequence of MCEI-III (P10296 2-31): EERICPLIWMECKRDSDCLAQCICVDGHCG

Ki [1]: 2 nM | Ki [2]: 23 nM
Substance: Corn Hageman factor inhibitor (from UniProt P01088)

Ki [3]: 17 nM | Ki [4]: 5.7 nM | Ki [5]: 5.7 nM | Ki [6]: 17 nM
Substance: Corn cystatin-I (from UniProt P31726)

Ki [7]: 4 nM
Substance: MCEI-III (from UniProt P10296)

Ki [8]: 0.01 nM
Substance: MTI-2 (from UniProt P26780)

Ki [9]: 79 nM | Ki [10]: 0.73 nM | Ki [11]: 1000 nM | Ki [12]: 1000 nM | Ki [13]: 0.73 nM | Ki [14]: 79 nM
Substance: Oryzacystatin-I (from UniProt P09229)

Ki [15]: 25 nM | Ki [16]: 0.17 nM | Ki [17]: 140 nM | Ki [18]: 200 nM | Ki [19]: 740 nM | Ki [20]: 730 nM
Substance: SFTI-I (from UniProt Q4GWU5)
